In patent US20220088131A1, “COMPOSITIONS AND METHODS RELATING TO C5L2” (King's College London, priority 2013, published 2022):

Test system: natural regulatory T cells (nTregs)
Assay: nTreg suppression assay (CFSE dilution)
Type: cell-based, human
Conditions: nTregs pre-incubated with 7 μM dRA for 8 hr; 1:1 co-culture; FIG. 14
Procedure: FIG. 14. C5L2 blockage decreases suppressive activity of natural regulatory T cells (nTregs). nTregs and effector T cells from a freshly drawn human blood sample were separated by cell sorting (CD4^+CD25^hiCD127^lo Treg cells; CD4^+CD25^loCD127^hi effector T cells). nTreg cells were incubated in media containing 7 μM of the C5ar/C5L2 double antagonist (dRA) for 8 hr. Cells were then washed twice to remove the dRA and used for a suppression assay via CSFE dilution measurement in 1:1 co-culture and percentage of suppression calculated. Shown are the mean values of two separately performed experiments.
nTregs were isolated essentially as described in Yates, J., et al., Int Immunol. (2007) 19(6):785-99. […]
Principle • Label target cells (T effectors (Teff) usually) with 1 μM CFSE as described • Activate cells with and without Tregs in serial dilution (constant Teff numbers) • CFSE will be evenly split among daughter cells, so peaks on flow will correspond to each round of division (halving of CFSE) • The percentage of dividing precursors can be calculated this way. • In the presence of Tregs, the suppression of division can be estimated. […]
• 1. […] Acquire FL1 fluorescence of each well on day 4 and calculate suppression of CFSE dilution by Tregs (different methods exist for this) * If there is inadequate CFSE labelling, pulse with ^3H-Thymidine on day 5 instead, as a readout for suppression. […]

B1: A8delta71-73: Dual C5aR/C5L2 receptor antagonist; C5a variant A8 (C27A, H67F, D69R, M70S, Q71L, G73R, Arg74 deleted) lacking amino acids 71-73 (protein)
chain: TLQKKIEEIAAKYKHSVVKKCCYDGAAVNNDETCEQRAARISLGPRCIKAFTECCVVASQLRANISFKRS
With B1 the “suppressor function of nTregs” value was “markedly reduced”.
